Results on one molecule are retold here after US20170052184A1 (published 2017).

Assay in all cases: EIA; Ab 2000 ng/mL captured on anti-mouse Fc; bt-peptide 500 ng/mL
In experiment [1] the target is T1, C113T109N biotin labeled HCV core peptide (hepatitis C virus, also: biotin labeled, position not given here).
T1 peptide: RGSRPSWGPND

Experiment [2] has as its target T2, WT1STHV biotin labeled HCV core peptide (hepatitis C virus, biotin labeled).
T2 peptide: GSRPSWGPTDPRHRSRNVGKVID

For experiment [3], the target named is Mut6T110S biotin labeled HCV core peptide (hepatitis C virus).
Experiment [4] addresses T3, Mut1T110N biotin labeled HCV core peptide (hepatitis C virus, biotin labeled).
T3 peptide: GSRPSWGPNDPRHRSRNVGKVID

In experiment [5] the target is T4, C113WT biotin labeled HCV core peptide (hepatitis C virus, also: biotin labeled, position not given here).
T4 peptide: RGSRPSWGPTD

Ends that are not written are not given here.

B1: HCV Neo4 monoclonal antibody (antibody, V domains shown)
VH: QIQLKESGPAVIKPSQSLSLTCIVSGFSITSSVYCWQWIRQPPGKGLEWMGRICYDGSVDYSPSITSRGTISRDTSLNKVFFQLSSVTNEDTAMYYCSRENHIDYYDTTYPSFDVWGAGTTVTVSS
VL: DIVLTQSPASLIVSLGQRATISCRASKSVNEYGYTYMHWYQQKPGLPPKLLIYLASNLDSGVPARFSGSGSGTDFTLNIHPVEEEDAATYYCQHSRELPYTFGGGTKLEIKR
With B1, the “signal at 492 nm” value stood at 0.059 OD 492 nm in experiment [1]; 1.9 OD 492 nm in experiment [2]; 1.17 OD 492 nm in experiment [3]; 0.0882 OD 492 nm in experiment [4]; 0.0766 OD 492 nm in experiment [5].
